Assay results reported in the supplement of paper PMC10724198.
± gives the standard deviation of the averaged measurements.

Tested on: Saccharomyces cerevisiae
Test: protein stability index of tFT-peptide fusion (C-terminal peptide) (PSI (0-1 scale)); higher = more stable (slower turnover)
Settings: genetic background: wild type; temperature: 30 C
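Also: PSI is a weighted mean of sequencing reads over stability bins, variants kept only with over 10 reads, mCherry proximal and sfGFP distal, peptide attached via GGGS linker.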

LRAPRGEFHWFL
protein stability index: 0.684 ± 0.11

IMGGPGLTALSR
protein stability index: 0.729 ± 0.061

YDLLLYGGATSP
protein stability index: 0.757 ± 0.084

RIVLGCSVVLRG
protein stability index: 0.615 ± 0.012

LLKGPDLLGRAS
protein stability index: 0.721 ± 0.051

QVDLVCKKVVGV
protein stability index: 0.655 ± 0.029

LLFDQTRIGMDV
protein stability index: 0.675 ± 0.038

GPLDEPRIWSHR
protein stability index: 0.669 ± 0.0095

KTKSKNGNQRAT
protein stability index: 0.711 ± 0.025

QTPPPRLPPRPP
protein stability index: 0.669 ± 0.062

CGFFSGLLYFSL
protein stability index: 0.586 ± 0.028

RSIYEFVPIRYV
protein stability index: 0.594 ± 0.028

LGRRGVVRVSPR
protein stability index: 0.687 ± 0.052

PLPSPPAPNSPQ
protein stability index: 0.6793 ± 0.0053

RRVMGRLKNQIK
protein stability index: 0.6672 ± 0.0065

KVGLGGRLQSYP
protein stability index: 0.6338 ± 0.0054

GGVSGESAVVSV
protein stability index: 0.649 ± 0.038

SGSFQGNVRVPC
protein stability index: 0.676 ± 0.017

GLGGRAAQKCGQ
protein stability index: 0.688 ± 0.016

LHFYASFPSPLV
protein stability index: 0.669 ± 0.044

GGVVCWACRWEL
protein stability index: 0.671 ± 0.04

LVFRSGWVSLIG
protein stability index: 0.641 ± 0.044

APPVAKHHAGKD
protein stability index: 0.647 ± 0.016

GRLIGICECLSV
protein stability index: 0.622 ± 0.017

QLPSDENSPANR
protein stability index: 0.615 ± 0.019

RPPGLIDSTIQP
protein stability index: 0.602 ± 0.034

RPSPPLLLPPAP
protein stability index: 0.71822 ± 0.00068

GGDFYEGVKNGK
protein stability index: 0.714 ± 0.11

GRFVVHEEVWFV
protein stability index: 0.6958 ± 0.0035

SPLPHPSPPPSP
protein stability index: 0.662 ± 0.016

GRLIRYGSLPSP
protein stability index: 0.729 ± 0.032

PPPPPLPSPTPP
protein stability index: 0.735 ± 0.024

VHCGTEPRGPRH
protein stability index: 0.709 ± 0.027

VRGRGSGGGVAG
protein stability index: 0.675 ± 0.065

PKWSVTPVAANL
protein stability index: 0.695 ± 0.048

TLYKSEQIAFFL
protein stability index: 0.644 ± 0.047

WFAGRDRHRAND
protein stability index: 0.745 ± 0.1

VLLAGRLEEGGE
protein stability index: 0.65 ± 0.087

GTRAGGRSKRER
protein stability index: 0.735 ± 0.11

PPPSPPPLPDPH
protein stability index: 0.697 ± 0.079

ESEGSGVGACGG
protein stability index: 0.681 ± 0.02

APRPRHFPTLPS
protein stability index: 0.812 ± 0.077

SVMMGVWWSGYR
protein stability index: 0.709 ± 0.13

CGSAIGEARDLG
protein stability index: 0.621 ± 0.021

LLLPNPTPPPPP
protein stability index: 0.625 ± 0.0012

HSPTPLLPPSPS
protein stability index: 0.727 ± 0.045

SLLPAPTPCPPP
protein stability index: 0.701 ± 0.033

SPTRMSAFVRLD
protein stability index: 0.739 ± 0.071

TQEKKGKIRGGI
protein stability index: 0.685 ± 0.0085

ITSFIKSDKSSK
protein stability index: 0.696 ± 0.029

SFPLPSLSSPSS
protein stability index: 0.61 ± 0.075

FPHPPPGPRALH
protein stability index: 0.691 ± 0.16

LADSLILWRFPT
protein stability index: 0.722 ± 0.087

DRPRPLPTPLPP
protein stability index: 0.5905 ± 0.0021

AQAPSPGRAPSP
protein stability index: 0.7158 ± 0.0022

QMRRRGARRAKP
protein stability index: 0.743 ± 0.027

GGAGHGAGAVWG
protein stability index: 0.71 ± 0.037

MNLAGRRAVEEW
protein stability index: 0.659 ± 0.024

YTSTSTILRPFP
protein stability index: 0.676 ± 0.078

HEHFRDRAGPAS
protein stability index: 0.636 ± 0.017

GGGGGFGVVRVG
protein stability index: 0.651 ± 0.032

CPFPSPTPPPPC
protein stability index: 0.726 ± 0.095

GAGRYVLNPCCS
protein stability index: 0.678 ± 0.034

AIAGSLSYCWDD
protein stability index: 0.678 ± 0.022

SLPQAPLRPAPS
protein stability index: 0.656 ± 0.046

FLHPSPIPPPLP
protein stability index: 0.7092 ± 0.0012

YKSKQKAQQKAK
protein stability index: 0.64 ± 0.13

PGPSPSPPLPRF
protein stability index: 0.748 ± 0.014

GAARGWLPGAGW
protein stability index: 0.727 ± 0.04

SSMCYARIIWWG
protein stability index: 0.596 ± 0.039

GFTGWGRRGLGG
protein stability index: 0.716 ± 0.076

FGLARGMFFLTV
protein stability index: 0.629 ± 0.056

WGGGCGRRIGCR
protein stability index: 0.7193 ± 0.007

SHGQAPFNVLVA
protein stability index: 0.596 ± 0.025

LPPSPPTVPSPP
protein stability index: 0.67 ± 0.027

KKKKREKSKHRK
protein stability index: 0.714 ± 0.022

GWGMVLYRNMML
protein stability index: 0.6039 ± 0.0046

RLSGHLRLGRLG
protein stability index: 0.672 ± 0.086

ASRIGHIGQPVI
protein stability index: 0.6889 ± 0.00017

PSRRFLPEKRSL
protein stability index: 0.678 ± 0.0039

CRTPQICASCLC
protein stability index: 0.59 ± 0.015

LSLPSPRPPPSP
protein stability index: 0.713 ± 0.063

SPPLNSFPPTPP
protein stability index: 0.62 ± 0.068

GVVSSHVDMIGL
protein stability index: 0.668 ± 0.0067

VTHSASFSDVFR
protein stability index: 0.731 ± 0.034

NSVLRESSGLQL
protein stability index: 0.689 ± 0.044

SPPLCAPPHPPA
protein stability index: 0.679 ± 0.04

LLPPGSSSRVAL
protein stability index: 0.733 ± 0.022

GMECFSGRGSEP
protein stability index: 0.735 ± 0.062

HGLFGRACRASH
protein stability index: 0.66 ± 0.043

AIPAVRFCRTLR
protein stability index: 0.643 ± 0.055

PPPVLSPRFPVL
protein stability index: 0.731 ± 0.14

TFSWISGKPRHT
protein stability index: 0.679 ± 0.041

THRAGLGANKGL
protein stability index: 0.696 ± 0.029

KKLRNKKGKRYA
protein stability index: 0.645 ± 0.086

PLPYPPTSPTPR
protein stability index: 0.678 ± 0.0078

KTKERKKQMRKI
protein stability index: 0.6822 ± 0.0042

RGGGQAKAPAGD
protein stability index: 0.6566 ± 0.0011

CAVSFPLCLLPP
protein stability index: 0.6439 ± 0.0036

CGCFLSELATFC
protein stability index: 0.652 ± 0.059

PLRTLFGDHLLV
protein stability index: 0.6826 ± 0.002
